Results published in paper PMC12375107 (Cell Death & Disease, 2025).

Target: T1, STING protein (SPR) (human, UniProt Q86WV6 1-379)
T1 construct: STING, protein injected as analyte; Probably the recombinant protein from E. coli of the GST pull-down
Assay: SPR; Biacore 8K; CAD captured on sensor chip CM5; STING injected at increasing concentrations for 2 min, dissociation 2 min in running buffer; equilibrium constants by the evaluation software
Details: both partners purified

T1 sequence (Q86WV6 whole entry): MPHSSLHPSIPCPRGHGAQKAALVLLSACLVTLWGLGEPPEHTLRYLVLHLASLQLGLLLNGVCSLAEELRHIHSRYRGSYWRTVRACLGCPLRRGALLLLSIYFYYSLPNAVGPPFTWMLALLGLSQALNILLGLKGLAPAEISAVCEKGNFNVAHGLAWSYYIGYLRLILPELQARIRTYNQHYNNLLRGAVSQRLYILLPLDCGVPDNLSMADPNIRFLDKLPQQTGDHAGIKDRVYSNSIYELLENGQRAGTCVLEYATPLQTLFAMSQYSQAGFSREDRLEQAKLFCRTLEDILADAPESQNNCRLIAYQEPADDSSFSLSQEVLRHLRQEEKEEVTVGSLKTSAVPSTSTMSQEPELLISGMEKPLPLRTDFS

Kd: 993 nM
B1: CAD protein (SPR) (enzyme, human, UniProt O76075 1-338, looked up)
chain: MLQKPKSVKLRALRSPRKFGVAGRSCQEVLRKGCLRFQLPERGSRLCLYEDGTELTEDYFPSVPDNAELVLLTLGQAWQGYVSDIRRFLSAFHEPQVGLIQAAQQLLCDEQAPQRQRLLADLLHNVSQNIAAETRAEDPPWFEGLESRFQSKSGYLRYSCESRIRSYLREVSSYPSTVGAEAQEEFLRVLGSMCQRLRSMQYNGSYFDRGAKGGSRLCTPEGWFSCQGPFDMDSCLSRHSINPYSNRESRILFSTWNLDHIIEKKRTIIPTLVEAIKEQDGREVDWEYFYGLLFTSENLKLVHIVCHKKTTHKLNCDPSRIYKPQTRLKRKQPVRKRQ
notes: Probably the recombinant protein from E. coli of the GST pull-down
